Earlier results as cited in patent US20230149374A1, “METHODS AND COMPOSITIONS FOR TREATING ATHEROSCLEROSIS” (Sanford Burnham Prebys Medical Discovery Institute, priority 2021, published 2023).

Tested on: patient with TNAP deficiency
Details: administration for 8 months, very high blood TNAP activity; cited from earlier work

B1: recombinant TNAP: recombinant TNAP administered for 8 months in a patient with TNAP deficiency (protein, UniProt P05186 18-501, looked up)
Alkaline phosphatase, …: LVPEKEKDPKYWRDQAQETLKYALELQKLNTNVAKNVIMFLGDGMGVSTVTAARILKGQLHHNPGEETRLEMDKFPFVALSKTYNTNAQVPDSAGTATAYLCGVKANEGTVGVSAATERSRCNTTQGNEVTSILRWAKDAGKSVGIVTTTRVNHATPSAAYAHSADRDWYSDNEMPPEALSQGCKDIAYQLMHNIRDIDVIMGGGRKYMYPKNKTDVEYESDEKARGTRLDGLDLVDTWKSFKPRYKHSHFIWNRTELLTLDPHNVDYLLGLFEPGDMQYELNRNNVTDPSLSEMVVVAIQILRKNPKGFFLLVEGGRIDHGHHEGKAKQALHEAVEMDRAIGQAGSLTSSEDTLTVVTADHSHVFTFGGYTPRGNSIFGLAPMLSDTDKKPFTAILYGNGPGYKVVGGERENVSMVDYAHNNYQAQSAVPLRHETHGGEDVAVFSKGPMAHLLHGVHEQNYVPHVMAYAACIGANLGHCAPAS
For B1, the vascular calcium score is given as “did not increase”.
